Laboratory results from publication PMC10009750, “Development of Selective ADAMTS-5 Peptide Substrates to Monitor Proteinase Activity” (Journal of Medicinal Chemistry, 2023).
Non-standard residues stand in square brackets, D forms with d. No end group written: not given here. Tyr(3-NO2) = N[C@@H](Cc1ccc(O)c([N+](=O)[O-])c1)C(=O)O; 2Abz = Nc1ccccc1C(=O)O

How the values were obtained:
Type in all cases: biochemical
[1] = target: T1, TS5-5 (combined catalytic and disintegrin domain of ADAMTS-5) (Homo sapiens, UniProt Q9UNA0); assay: Cleavage of FRET peptide substrates by TS5-5 in solution (activity/selectivity studies); conditions: substrate 20 μM, 37 °C
T1 construct: ADAMTS-5 (i.e. TS5-5, residues 264–555); FLAG; made in house; host or cells: HEK293 cells (previously transfected stocks)
T1 sequence (Q9UNA0 264-555): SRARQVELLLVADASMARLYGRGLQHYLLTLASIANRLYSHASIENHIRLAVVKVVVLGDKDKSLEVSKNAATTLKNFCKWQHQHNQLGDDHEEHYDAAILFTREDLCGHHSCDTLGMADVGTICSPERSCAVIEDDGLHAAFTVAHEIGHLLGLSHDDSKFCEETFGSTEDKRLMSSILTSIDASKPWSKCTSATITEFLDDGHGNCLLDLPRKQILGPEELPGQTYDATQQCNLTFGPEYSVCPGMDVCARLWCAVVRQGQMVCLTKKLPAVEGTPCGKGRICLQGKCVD
Experimental: (§1) All proteinase assays were performed at 37 °C in a SpectraMax M5 spectrophotometer (Molecular Devices, San Jose, USA) using a 96-well black microplate (Greiner bio-one, Stonehouse, UK) unless otherwise stated. […] N-TIMP-3 was purified as described previously[30] and CT-1746 was a gift from Dr. Yoshifumi Itoh (Kennedy Institute of Rheumatology, University of Oxford). All analyses were carried out using Prism 9 software (GraphPad, La Jolla, CA, USA).
To test whether active TS5-5 had been purified, three concentrations of proteinase were assayed. A solution of Abz-TESE↓SRGAIY-Dpa-KK-NH2 (22.22 μM) in freshly prepared TNC buffer with 0.02% (v/v) Brij-35 (180 μL) was added to a 96-well black microplate in triplicate for each proteinase concentration. A substrate-only background control was also added in triplicate (180 μL). The resultant solutions were incubated at 37 °C (30 min). TS5-5 proteinase in TNC buffer with 0.02% (v/v) Brij-35 (20 μL) was added to wells to give final proteinase concentrations of 80 nM, 40 nM and 20 nM. TNC buffer with 0.02% (v/v) Brij-35 (20 μL) was also added to background control wells. The change in RFU was measured at 37 °C for 1 h, with readings every 20 s. Following subtraction of background fluorescence intensity, linear regression analysis of the linear part of each curve was used to determine the cleavage rate, which was expressed as the mean ± SEM in RFU s^–1. For cases where a single concentration of TS5-5 or TS4-4 was assayed, the same procedure was used but with 0.005% (v/v) Brij-35 and using the 5-FAM-AE↓LQGRPISIAK-TAMRA substrate for TS4-4 (0.56 μM). To convert cleavage rates to nM s^–1 nM^–1, the rate in RFU s^–1 was divided by the final concentration of proteinase (nM), then divided by the gradient of the calibration curve for Abz or 5-FAM (expressed in RFU nM^–1).
(§2) Selectivity studies are described for Abz-TESE↓SRGAIY-Dpa-KK-NH2, the library parent peptide 3, and hit peptides 18–26. A solution of Abz-TESE↓SRGAIY-Dpa-KK-NH2 (22.22 μM) in freshly prepared TNC buffer with 0.005% (v/v) Brij-35 (90 μL) was added to a 96-well clear bottom microplate (Greiner bio-one, Stonehouse, UK) in triplicate. A substrate-only background control was also added in triplicate (90 μL). The resultant solutions were incubated at 37 °C (30 min). An ADAMTS or MMP proteinase was added to substrate wells (10 μL) to give a final proteinase concentration of either 50–90 nM (TS4-4), 25–200 nM (TS5-5), 5–10 nM (MMP-2ΔC), 30 nM (MMP-9ΔC), 92 nM (MMP-1), or 3 μM (MMP-3). TNC buffer with 0.005% (v/v) Brij-35 was added to substrate-only control wells (10 μL). The relative fluorescence intensity was measured at 37 °C for 1 h with readings every 20 s. Activity was read from underneath the microplate, which was covered with a low evaporation lid. […] For each ADAMTS and MMP proteinase, the assay was performed 2–4 times. […] Final rates were expressed as a percentage of substrate cleavage by TS5-5 (mean ± SEM) or in μM s^–1 μM^–1 of proteinase.

[2] = target: T2, MMP-2ΔC (catalytic domain of MMP-2) (Homo sapiens, UniProt P08253); assay: Selectivity studies: cleavage of FRET peptide substrates by MMP-2ΔC; conditions: substrate 20 μM, MMP-2ΔC 5–10 nM, TNC buffer with 0.005% (v/v) Brij-35, 37 °C; mean of 3–4 independent experiments in triplicate
T2 construct: the catalytic domain of MMP-2, i.e., MMP-2ΔC; made in house; host or cells: HEK293 cells (previously transfected stocks)
T2 sequence (P08253 110-465 limits assumed, stated change not applied): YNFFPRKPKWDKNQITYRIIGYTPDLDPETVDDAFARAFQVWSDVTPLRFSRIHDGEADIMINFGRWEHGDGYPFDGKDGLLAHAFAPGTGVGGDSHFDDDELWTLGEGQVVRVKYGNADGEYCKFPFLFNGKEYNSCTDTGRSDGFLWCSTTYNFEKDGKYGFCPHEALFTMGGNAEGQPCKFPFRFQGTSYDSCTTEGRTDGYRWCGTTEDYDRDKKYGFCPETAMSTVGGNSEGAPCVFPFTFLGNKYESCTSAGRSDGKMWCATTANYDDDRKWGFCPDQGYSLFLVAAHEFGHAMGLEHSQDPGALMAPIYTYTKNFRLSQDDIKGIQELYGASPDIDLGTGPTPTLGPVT
Experimental: as §1, §2

MMP-1 (full length) = assay: Selectivity studies: cleavage of the current substrate by MMP-1; conditions: substrate 20 μM, MMP-1 92 nM, up to 72 h, 37 °C; single triplicate experiment
Experimental: as §1
Selectivity studies are described for Abz-TESE↓SRGAIY-Dpa-KK-NH2, the library parent peptide 3, and hit peptides 18–26. A solution of Abz-TESE↓SRGAIY-Dpa-KK-NH2 (22.22 μM) in freshly prepared TNC buffer with 0.005% (v/v) Brij-35 (90 μL) was added to a 96-well clear bottom microplate (Greiner bio-one, Stonehouse, UK) in triplicate. A substrate-only background control was also added in triplicate (90 μL). The resultant solutions were incubated at 37 °C (30 min). […] The relative fluorescence intensity was measured at 37 °C for 1 h with readings every 20 s. Activity was read from underneath the microplate, which was covered with a low evaporation lid. […] Final rates were expressed as a percentage of substrate cleavage by TS5-5 (mean ± SEM) or in μM s^–1 μM^–1 of proteinase.

Row | Substance | improvement in cleavage (overall cleavage rate) by TS5-5 compared to the current substrate [1] [fold] | rate of cleavage by MMP-2ΔC [2] [μM s^–1 μM^–1] | cleavage by MMP-1 (MMP-1 (full length))
1 | KY(NO2)TESESRGK(Abz)IYYKKG (K[Tyr(3-NO2)]TESESRGK(Abz)IYYKKG) [Compound 3] | ~4 |  | 
2 | Abz-TESE↓SRGAIY-Dpa-KK-NH2 [current, ortho-aminobenzoyl(Abz)-TESE↓SRGAIY-N-3-[2,4-dinitrophenyl]-L-2,3-diaminopropionyl(Dpa)-KK-NH2, reference compound] |  | 0.56 | no cleavage was observed
3 | KY(NO2)SENESRGK(Abz)IYYKKG (K[Tyr(3-NO2)]SENESRGK(2Abz)IYYKKG) [Compound 26] | ~3 |  | 
